Results on 125 sequences are retold here after the supplement of paper PMC9112550, “Optimization of the antimicrobial peptide Bac7 by deep mutational scanning” (BMC Biology, 2022).

The subject of this data set is Escherichia coli TOP10. The experiment in a line: shrunken log2 fold change of peptide-encoding DNA abundance (4.5 h post-induction vs induction); higher = less antimicrobial activity (less host growth inhibition). The conditions noted are these: time post-induction: 4.5 h; library: site-saturation at positions 5, 18, 19, 20.
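Also: peptides expressed intracellularly from a pBAD plasmid library in pooled LB shake-flask culture, induced with 0.3% L-arabinose, DNA abundance read by NGS, three biological replicates, DESeq2 with apeglm shrinkage.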

Regarding RRIRSRPPRLPRPRPRPACQPRP, the “shrunken log2 fold change” value turned out to be 0.0147.
In the case of RRIRMRPPRLPRPRPRPKCWPRP it was 1; in that of RRIRSRPPRLPRPRPRPFNDPRP, -0.223; in that of RRIRIRPPRLPRPRPRPSPMPRP, -0.2.
In the case of RRIRHRPPRLPRPRPRPDSEPRP, the “shrunken log2 fold change” value is -0.0112.
With RRIRTRPPRLPRPRPRPDIGPRP the figure was -0.187; with RRIRNRPPRLPRPRPRPTIMPRP, -0.0883.
With RRIRCRPPRLPRPRPRPEVCPRP the figure was 0.0143; with RRIRQRPPRLPRPRPRPIGLPRP, -0.00141; with RRIRHRPPRLPRPRPRPNFMPRP, -0.5.
In the case of RRIRCRPPRLPRPRPRPGPQPRP it was 0.117; in that of RRIRIRPPRLPRPRPRPPSTPRP, 0.0126.
As to RRIRFRPPRLPRPRPRPLALPRP, the “shrunken log2 fold change” value is -0.0762.
With RRIRCRPPRLPRPRPRPVLNPRP, the “shrunken log2 fold change” value is -0.396.
Turning to RRIRGRPPRLPRPRPRPALRPRP, the “shrunken log2 fold change” value came to 0.991.
In the case of RRIRHRPPRLPRPRPRPISYPRP it was 0.121.
With RRIRNRPPRLPRPRPRPIKIPRP the figure was -0.357.
As to RRIRFRPPRLPRPRPRPDHMPRP, the “shrunken log2 fold change” value is -0.585.
With RRIRWRPPRLPRPRPRPMYVPRP the figure was -0.0461; with RRIRWRPPRLPRPRPRPHEGPRP, -0.102.
With RRIRARPPRLPRPRPRPWVEPRP the figure was 0.151; with RRIRARPPRLPRPRPRPVLVPRP, 0.0133.
In the case of RRIRARPPRLPRPRPRPQPQPRP, the “shrunken log2 fold change” value amounted to 0.436.
In the case of RRIRHRPPRLPRPRPRPYCWPRP, the “shrunken log2 fold change” value was -0.352.
With RRIRGRPPRLPRPRPRPRQEPRP the figure was 0.527; with RRIRLRPPRLPRPRPRPDAGPRP, 0.0316; with RRIRMRPPRLPRPRPRPGDGPRP, 0.864.
With RRIRMRPPRLPRPRPRPWWDPRP the figure was 0.142.
With RRIRRRPPRLPRPRPRPHSFPRP the figure was 0.199.
Turning to RRIRCRPPRLPRPRPRPPLDPRP, the “shrunken log2 fold change” value is 0.616.
In the case of RRIRPRPPRLPRPRPRPMHQPRP it was 0.059.
In the case of RRIRQRPPRLPRPRPRPLAMPRP, the “shrunken log2 fold change” value amounted to 0.294.
RRIRHRPPRLPRPRPRPWGPPRP: the “shrunken log2 fold change” value is -0.0071.
RRIRSRPPRLPRPRPRPIWGPRP: the “shrunken log2 fold change” value came to 0.0936.
With RRIRNRPPRLPRPRPRPDSCPRP the figure was -0.00192; with RRIRRRPPRLPRPRPRPKFKPRP, -0.046.
In the case of RRIRMRPPRLPRPRPRPNGNPRP it was 0.261; in that of RRIRYRPPRLPRPRPRPYVPPRP, -0.77.
As for RRIRFRPPRLPRPRPRPEVFPRP, the “shrunken log2 fold change” value is 0.181.
With RRIRSRPPRLPRPRPRPPLLPRP the figure was 0.0398.
In the case of RRIRHRPPRLPRPRPRPCENPRP it was -0.0381; in that of RRIRRRPPRLPRPRPRPTCVPRP, 0.455; in that of RRIRWRPPRLPRPRPRPMIPPRP, 0.0901.
For RRIRHRPPRLPRPRPRPQHEPRP, the “shrunken log2 fold change” value was -0.191.
With RRIRRRPPRLPRPRPRPGQDPRP the figure was 0.112; with RRIRRRPPRLPRPRPRPMTEPRP, 0.0575.
In the case of RRIRPRPPRLPRPRPRPQHEPRP it was -0.146; in that of RRIRTRPPRLPRPRPRPFIVPRP, -0.265; in that of RRIRTRPPRLPRPRPRPKVNPRP, -0.168.
With RRIRCRPPRLPRPRPRPDCLPRP the figure was -0.494; with RRIRRRPPRLPRPRPRPSSPPRP, 0.00935; with RRIRGRPPRLPRPRPRPFGQPRP, 0.368.
For RRIRCRPPRLPRPRPRPYNWPRP, the “shrunken log2 fold change” value was -0.917.
In the case of RRIRMRPPRLPRPRPRPWPEPRP it was 0.735; in that of RRIRFRPPRLPRPRPRPEEVPRP, 0.0815.
In the case of RRIRSRPPRLPRPRPRPIKEPRP it was -0.0466; in that of RRIRGRPPRLPRPRPRPSCEPRP, 0.507; in that of RRIRGRPPRLPRPRPRPPSRPRP, 1.11.
Consider RRIRLRPPRLPRPRPRPRTDPRP, for which the “shrunken log2 fold change” value is -0.0417.
With RRIRSRPPRLPRPRPRPMWPPRP the figure was 0.447; with RRIRYRPPRLPRPRPRPADFPRP, -0.0123; with RRIRWRPPRLPRPRPRPKGMPRP, -0.159.
Regarding RRIRCRPPRLPRPRPRPPIDPRP, the “shrunken log2 fold change” value was -0.071.
With RRIRLRPPRLPRPRPRPPTTPRP the figure was 0.449; with RRIRIRPPRLPRPRPRPFHNPRP, -0.213; with RRIRKRPPRLPRPRPRPDRYPRP, -0.0261.
In the case of RRIRLRPPRLPRPRPRPRIPPRP it was 0.09; in that of RRIRIRPPRLPRPRPRPRCVPRP, -0.0162.
In the case of RRIRQRPPRLPRPRPRPGWGPRP it was 0.957.
Turning to RRIRMRPPRLPRPRPRPECDPRP, the “shrunken log2 fold change” value is 2.82.
With RRIRVRPPRLPRPRPRPHMTPRP the figure was -0.277.
RRIRVRPPRLPRPRPRPFWFPRP: the “shrunken log2 fold change” value is 0.149.
In the case of RRIRVRPPRLPRPRPRPSMKPRP it was -0.363; in that of RRIRGRPPRLPRPRPRPQTPPRP, 1.36; in that of RRIRDRPPRLPRPRPRPVFRPRP, 0.18.
With RRIRDRPPRLPRPRPRPCVGPRP the figure was 0.97.
For the sequence RRIRWRPPRLPRPRPRPTRMPRP, the “shrunken log2 fold change” value came out at 0.381.
For RRIRARPPRLPRPRPRPYFGPRP, the “shrunken log2 fold change” value was -0.327.
In the case of RRIRDRPPRLPRPRPRPWCFPRP it was -0.0692; in that of RRIRKRPPRLPRPRPRPNWAPRP, 0.279.
In the case of RRIRFRPPRLPRPRPRPDPVPRP it was 0.227; in that of RRIRHRPPRLPRPRPRPTCDPRP, -0.011; in that of RRIRQRPPRLPRPRPRPISKPRP, -0.0725.
With RRIRTRPPRLPRPRPRPEHQPRP the figure was 0.127; with RRIRERPPRLPRPRPRPHYRPRP, 0.05; with RRIRGRPPRLPRPRPRPGITPRP, 0.356.
Turning to RRIRLRPPRLPRPRPRPYKSPRP, the “shrunken log2 fold change” value came to 0.0344.
In the case of RRIRHRPPRLPRPRPRPGSLPRP it was 0.134.
With RRIRMRPPRLPRPRPRPPMTPRP the figure was 0.789; with RRIRSRPPRLPRPRPRPPWDPRP, 0.409; with RRIRSRPPRLPRPRPRPAAKPRP, 0.155.
RRIRKRPPRLPRPRPRPPHHPRP: the “shrunken log2 fold change” value came to 0.322.
With RRIRRRPPRLPRPRPRPQYFPRP the figure was -0.0475; with RRIRWRPPRLPRPRPRPLKGPRP, 0.0212.
Consider RRIRVRPPRLPRPRPRPIFIPRP, for which the “shrunken log2 fold change” value was -0.328.
Take RRIRCRPPRLPRPRPRPFTCPRP: the “shrunken log2 fold change” value is -0.223.
As for RRIRMRPPRLPRPRPRPCWIPRP, the “shrunken log2 fold change” value is -0.351.
On to RRIRYRPPRLPRPRPRPNMTPRP, for which the “shrunken log2 fold change” value is -0.00766.
RRIRGRPPRLPRPRPRPADPPRP: the “shrunken log2 fold change” value is 0.585.
With RRIRTRPPRLPRPRPRPNQCPRP the figure was 0.00866.
Turning to RRIRMRPPRLPRPRPRPGGRPRP, the “shrunken log2 fold change” value worked out at 1.04.
In the case of RRIRVRPPRLPRPRPRPKFRPRP it was 0.0323.
For RRIRPRPPRLPRPRPRPKYEPRP, the “shrunken log2 fold change” value is -0.203.
In the case of RRIRYRPPRLPRPRPRPSVFPRP, the “shrunken log2 fold change” value was -0.219.
With RRIRVRPPRLPRPRPRPIADPRP the figure was 0.0367.
With RRIRGRPPRLPRPRPRPDQGPRP, the “shrunken log2 fold change” value was 0.347.
As to RRIRPRPPRLPRPRPRPQCTPRP, the “shrunken log2 fold change” value was -0.0867.
In the case of RRIRLRPPRLPRPRPRPLNFPRP it was -0.268; in that of RRIRDRPPRLPRPRPRPDRNPRP, -0.0216.
In the case of RRIRFRPPRLPRPRPRPCWIPRP it was -0.354.
Consider RRIRCRPPRLPRPRPRPMHSPRP, for which the “shrunken log2 fold change” value is -0.0254.
In the case of RRIRLRPPRLPRPRPRPSEDPRP it was -0.256; in that of RRIRHRPPRLPRPRPRPHTHPRP, -0.725; in that of RRIRGRPPRLPRPRPRPYTKPRP, -0.216.
In the case of RRIRARPPRLPRPRPRPMLEPRP it was 0.455; in that of RRIRWRPPRLPRPRPRPCLTPRP, -0.00541; in that of RRIRMRPPRLPRPRPRPLVIPRP, -0.13.
In the case of RRIRFRPPRLPRPRPRPDSGPRP it was -0.0156; in that of RRIRLRPPRLPRPRPRPHVTPRP, -0.198; in that of RRIRSRPPRLPRPRPRPVWRPRP, 0.33.
For the sequence RRIRCRPPRLPRPRPRPKVGPRP, the “shrunken log2 fold change” value is -0.0582.
With RRIRFRPPRLPRPRPRPLKVPRP the figure was -0.112; with RRIRHRPPRLPRPRPRPTPWPRP, 0.692; with RRIRARPPRLPRPRPRPMAYPRP, 0.546.
In the case of RRIRWRPPRLPRPRPRPTVEPRP it was 0.0565.
